# According to article PMC6378967:
# Assays:
# [1] = target: WT human renin (human) (UniProt P00797)
# [2] = target: biotinylated renin D226A mutant (human); assay: BLI; FortéBio Octet Red96; biotinylated renin D226A (2.5 μg/ml) loaded on streptavidin biosensors; 2-fold dilutions of AGT in 10 mM Tris, pH 7.4, 0.15 M NaCl, 1% BSA; 1:1 binding model, global fit; KD = koff/kon; three independent assays
# [3] = target: WT human renin (human) (UniProt P00797); remark: listed apart in the source
# WT human renin (human), sequence (P00797 67-406): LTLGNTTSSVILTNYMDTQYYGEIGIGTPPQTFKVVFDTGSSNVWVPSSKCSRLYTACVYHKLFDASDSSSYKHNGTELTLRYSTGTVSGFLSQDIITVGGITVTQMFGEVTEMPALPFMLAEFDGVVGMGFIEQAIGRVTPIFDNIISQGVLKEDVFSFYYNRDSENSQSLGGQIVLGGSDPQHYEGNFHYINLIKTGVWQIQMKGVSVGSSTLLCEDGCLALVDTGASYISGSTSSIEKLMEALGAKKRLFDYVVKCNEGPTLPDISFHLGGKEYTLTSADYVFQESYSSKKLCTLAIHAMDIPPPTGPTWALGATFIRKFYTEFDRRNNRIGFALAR
Substance,Km of cleavage of AGT by WT human renin (released Ang I quantified by immunoassay) [1],kcat of cleavage of AGT by WT human renin (released Ang I quantified by immunoassay) [1],kcat/Km of cleavage of AGT by WT human renin (released Ang I quantified by immunoassay) [1],Kd [2],koff [2],kon [2],inhibition of renin cleavage of an AGT fusion protein (intact AGT 1.1 μM) by increasing amounts of spent AGT (product inhibition; blocks renin with intact AGT) [3]
fully glycosylated WT human angiotensinogen (AGT) (natural protein),0.76 µM,0.2 s⁻¹,250000 M⁻¹ s⁻¹,–,–,–,–
human AGT N14Q variant (natural protein),0.56 µM,0.35 s⁻¹,640000 M⁻¹ s⁻¹,5.8 nM,0.000209 s⁻¹,36100 M⁻¹ s⁻¹,–
human AGT quadruple glycosylation mutant N14Q/N137Q/N271Q/N295Q (natural protein),0.67 µM,0.44 s⁻¹,650000 M⁻¹ s⁻¹,1.2 nM,8.61e-05 s⁻¹,74600 M⁻¹ s⁻¹,–

# Now from value to substance:
Km of cleavage of AGT by WT human renin (released Ang I quantified by immunoassay) [1],kcat of cleavage of AGT by WT human renin (released Ang I quantified by immunoassay) [1],kcat/Km of cleavage of AGT by WT human renin (released Ang I quantified by immunoassay) [1],Kd [2],koff [2],kon [2],inhibition of renin cleavage of an AGT fusion protein (intact AGT 1.1 μM) by increasing amounts of spent AGT (product inhibition; blocks renin with intact AGT) [3],Substance
2.56 µM,0.14 s⁻¹,50000 M⁻¹ s⁻¹,91.5 nM,0.000296 s⁻¹,3210 M⁻¹ s⁻¹,–,human AGT N331D (natural protein)
0.76 µM,0.16 s⁻¹,220000 M⁻¹ s⁻¹,27.9 nM,0.000418 s⁻¹,15000 M⁻¹ s⁻¹,–,human AGT N334T (natural protein)
1.42 µM,0.2 s⁻¹,140000 M⁻¹ s⁻¹,44.6 nM,0.000606 s⁻¹,14000 M⁻¹ s⁻¹,–,human AGT R83H (natural protein)
–,–,–,–,–,–,0.65 µM,spent AGT (human AGT without the N-terminal 10-residue angiotensin I peptide) (domain or fragment)
